We go through 8 molecules from patent US20210115087A1 (UNIVERSITY OF ROCHESTER, published 2021).

*1 amine or outer side, *2 acyl side, *3 side chain or, on linkers, in order; H or OH if unused. Bridges are numbered along the chain shown (N, C = ends). Where no end group is shown, it is not given here. [ ]: non-standard residue; d: D form. The star is where a group is joined. O2beY = O-alkylated Tyr from O-2-bromoethyl-tyrosine, O-CH2CH2- thioether-linked to Cys, O=C([C@H](Cc1ccc(OCC[*:3])cc1)N[*:1])[*:2]; L‑5 = linker -CH2S(CH2)2SCH2-, C(CSC[*:2])SC[*:1]; Biotin = O=C1N[C@H]2[C@H](CS[C@H]2CCCCC(=O)*)N1; L‑9 = linker -CH2SCH2CH=CHCH2SCH2-; L‑6 = linker -CH2S(CH2)3SCH2-; L‑4 = linker -CH2SCH2SCH2-

What is called Kd is the concentration at which binding is half-saturated.

Assay [1] deals with T1, GST-Shh (recombinant GST-fused human Sonic Hedgehog) (human, UniProt Q15465 24-197).
T1 construct: Expressed in E. coli BL21(DE3), Ni-NTA purified, immobilized on microtiter plates; also called GST-fused Shh; not shown: glutathione-S-transferase (GST) containing a poly-histidine tag, from expression vector pET42b (Novagen); N-terminal fus
Briefly: plate assay: immobilized GST-Shh, biotinylated peptide, HRP-streptavidin. On the procedure:
(§1) Hh protein binding assay. Shh binding activity/affinity of the linear and cyclic peptides was measured using the immunoassay outlined in FIG. 4. For these experiments, GST-Shh was immobilized on 96-well microtiter plates (100 μL of 4 μM GST-Shh solution in PBS buffer), followed by blocking with bovine serum albumin. After washing, each well was incubated with 100 μL of purified FLAG-fused peptide at varying concentrations for 1 hour at room temperature. After washing, each well was added with 100 μL of 1:2500 dilution of HRP-conjugate mouse anti-FLAG polyclonal antibody (Sigma-Aldrich) for 1 hour at room temperature. After washing, 100 μL of 2.2 mM o-phenylenediamine dihydrochloride, 4.2 mM urea hydrogen peroxide, 100 mM dibasic sodium phosphate and 50 mM sodium citrate, pH 5.0 was added to each well, followed by measurement of the absorbance at 450 nm using a Tecan Infinite 1000 plate reader. Equilibrium dissociation constants (KD) were determined by fitting the dose-response curves (FIG. 5) to a 1:1 binding isotherm equation via non-linear regression using SigmaPlot.
For assessing the Shh binding affinity of the cysteine-crosslinked peptides described in Example 4, biotinylated variants of these peptides were prepared by introducing a biotin moiety to the N-terminal peptide of the peptide followed by a tetrapeptide (Gly-Ser-Gly-Ser) (SEQ ID NO: 72) spacer (i.e., peptides Biot-m5-s1 through Biot-m5-s10). The biotinylated peptides were tested in a modified variant of the Shh binding assay described in Example 1, where HRP-conjugated streptavidin is used instead of the HRP-conjugated anti-FLAG antibody.

Assay [2] deals with T1, GST-Shh (recombinant GST-fused human …). In words: plate immunoassay: immobilized GST-Shh, FLAG-tagged peptide titrated, HRP anti-FLAG antibody, A450. On the procedure: To measure the binding affinity of the peptides for Shh, an in vitro assay was established in which recombinant GST-fused Shh is immobilized on microtiter plates and then exposed to the FLAG-tagged peptide at varying concentrations. The Shh-bound peptide is then quantified colorimetrically (λ₄₅₀) using a horseradish peroxidase (HRP)-conjugated anti-FLAG antibody.
as §1, with “After washing, each well was added with 100 μL of 1:2500 dilution of HRP-conjugate mouse anti-FLAG polyclonal antibody (Sigma-Aldrich) for 1 hour at room temperature.” left out

Assay [3] has the same target. Briefly: plate immunoassay: immobilized GST-Shh, purified FLAG-tagged peptide titrated, HRP anti-FLAG antibody. On the procedure:
as §1
(§2) Next, all of the yet unmodified positions within the HL2-m3 sequence (relative to HL2-m1) were randomized by site-saturation mutagenesis. These positions correspond to residue Thr1, Leu2, Asp3, Glu6, Glu7, Met8, Asp12 of the HL2-m3 sequence. […]

The target is the same in assay [4]. Briefly: plate immunoassay: immobilized GST-Shh, HRP anti-FLAG antibody. As to the method:
as §1, §2

For assay [5], the target named is T2, GST-Dhh (recombinant GST-fused human Desert Hedgehog) (human, UniProt O43323 23-198).
T2 construct: not shown: glutathione-S-transferase (GST) containing a poly-histidine tag, from expression vector pET42b (Novagen); N-terminal fus
In words: plate immunoassay: immobilized GST-Dhh against GST-Shh, HRP anti-FLAG antibody. As to the method: as §1
Hedgehog analog selectivity. KD values for FLAG-HL2-m5 binding to Ihh and Dhh were determined using the colorimetric immunoassay described earlier but using GST-Ihh and GST-Dhh-coated plates, respectively. […] Mean values and standard deviations were calculated from experiments performed at least in triplicate.

In the case of Biotin-GSGSTLSWCEAMDMCTD-NH2 (linker 9-15 via L‑4) [Biot-m5-s2], the Kd in assay [1] stood at 3.4 µM. On the same count and under the same terms, the same measure for Biotin-GSGSTLSWCEAMDMCTD-NH2 (linker 9-15 via L‑9) [BIOT-M5-S5 (as labelled in the KD table of Example 5)]: 1.1 µM. In the case of MDYKDDDDKGSGSTLDDMEEMDGLSD (also called linear L2-derived peptide) [FLAG-HL2-pep], in assay [2], the Kd was determined as 20 µM. Biotin-GSGSTLSWCEAMDMCTD-NH2 (linker 9-15 via L‑5) [Biot-m5-s3]: the Kd in assay [1] amounted to 5.9 µM.

Take Biotin-GSGSTLSWCEAMDMCTD-NH2 (disulfide 9-15) [Biot-m5-s1]: in assay [1], the equilibrium dissociation constant (Kd) worked out at 1.7 µM. Same read-out and setting: the same measure for Biotin-GSGSTLSWCEAMDMCTD-NH2 (linker 9-15 via L‑6) [Biot-m5-s4]: 6.4 µM. As to MDYKDDDDKGSGSTLSW[O2beY]EAMDMCTD-OH (bridge 18-24; not fully specified (bridges)) [FLAG-HL2-m5], the dissociation constant Kd in assay [3] turned out to be 170 nM. Moreover, the “fold higher binding affinity for Shh compared to FLAG-HL2-pep” value in assay [4] is ~120 fold. The “fold lower affinity than for Shh” value in assay [5] is 2 fold.

B1: BIOT-M5-S7 (as labelled in the KD table of Example 5) (peptide)
peptide: GSGSTLSWCEAMDMCTD
modifications: N-terminal biotin; Cys5 and Cys11 crosslinked, by the printed MW 2121.41 with one of the isomeric linkers L-10, L-11, L-12 (drawings; probably L-11); C-terminal amide
notes: it fits the xylene-type linkers
For the molecule B1, the dissociation constant Kd in assay [1] stood at 9.2 µM.
